For one test, the target named is galanin receptors. Conditions: hypothalamus, ventral hippocampus, basal forebrain, spinal cord, pancreas, pituitary; read-out: Kd of specific binding; cited from earlier work.
For test [1], the target named is T1, rat GALR1 (Rattus norvegicus, UniProt Q62805).
T1 sequence (Q62805 1-346): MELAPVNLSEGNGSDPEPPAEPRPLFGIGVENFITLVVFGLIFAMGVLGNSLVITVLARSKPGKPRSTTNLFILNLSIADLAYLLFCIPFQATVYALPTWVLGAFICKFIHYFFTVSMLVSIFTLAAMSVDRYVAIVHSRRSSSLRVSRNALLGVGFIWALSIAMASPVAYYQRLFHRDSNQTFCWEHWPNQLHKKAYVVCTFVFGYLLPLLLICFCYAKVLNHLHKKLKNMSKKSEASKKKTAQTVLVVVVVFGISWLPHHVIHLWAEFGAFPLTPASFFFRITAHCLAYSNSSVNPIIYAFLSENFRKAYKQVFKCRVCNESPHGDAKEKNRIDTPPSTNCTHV
Kind of test: biochemical.

Test [2] concerns the target T2, rat GALR2 (clone 27A) (Rattus norvegicus, UniProt O08726).
T2 sequence (O08726 1-372): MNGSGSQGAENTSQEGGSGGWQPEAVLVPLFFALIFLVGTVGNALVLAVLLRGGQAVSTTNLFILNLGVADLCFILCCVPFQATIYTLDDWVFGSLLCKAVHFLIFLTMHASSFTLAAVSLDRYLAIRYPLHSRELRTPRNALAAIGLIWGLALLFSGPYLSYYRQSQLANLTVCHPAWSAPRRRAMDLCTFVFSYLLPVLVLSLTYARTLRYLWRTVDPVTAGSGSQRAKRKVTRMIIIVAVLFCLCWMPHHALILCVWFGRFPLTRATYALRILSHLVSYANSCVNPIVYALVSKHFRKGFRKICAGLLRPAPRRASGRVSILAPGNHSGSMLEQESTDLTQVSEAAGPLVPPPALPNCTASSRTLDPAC
Briefly: biochemical.

The target of test [3] is T3, human GALR2 (Homo sapiens, UniProt O43603).
T3 construct: expressed in transfected cells; host or cells: 293-AEQ17 (aequorin-expressing 293 line)
T3 sequence (O43603 1-387): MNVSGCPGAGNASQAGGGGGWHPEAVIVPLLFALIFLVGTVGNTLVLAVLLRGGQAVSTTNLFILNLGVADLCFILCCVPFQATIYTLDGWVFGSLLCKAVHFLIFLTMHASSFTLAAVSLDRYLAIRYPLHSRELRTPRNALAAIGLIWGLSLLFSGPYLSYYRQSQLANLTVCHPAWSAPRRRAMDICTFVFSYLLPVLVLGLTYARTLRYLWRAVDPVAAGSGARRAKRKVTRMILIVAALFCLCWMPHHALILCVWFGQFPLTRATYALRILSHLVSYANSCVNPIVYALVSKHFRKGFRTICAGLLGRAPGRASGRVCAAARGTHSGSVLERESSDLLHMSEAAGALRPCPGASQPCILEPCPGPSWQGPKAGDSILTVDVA
Briefly: Aequorin bioluminescence assay in 293-AEQ17 cells, human GALR2. Conditions: read-out: EC50, aequorin bioluminescence; human GALR2 in 293-AEQ17 cells. It is filed as cell-based.

Test [4] addresses T1, rat GALR1.
Method: (§1) Membranes were prepared from transfected cells following dissociation in enzyme-free dissociation solution (Specialty Media, Lavallette, N.J.) by disruption in a Dounce homogenizer in ice-cold membrane buffer (10 mM Tris, pH 7.4, 10 mM PMSF, 10 μM phosphoramidon, and 40 μg/ml bacitracin). After a low speed (1100×g for 10 min. at 4° C.) and a high speed centrifugation (38,700×g for 15 min. at 4° C.), membranes were resuspended in buffer and protein concentration determined (Bio-Rad assay kit). […] Reactions were initiated by the addition of membranes and the incubation was allowed to proceed at room temperature for 1 hour. […] Incubations were terminated by rapid filtration through GF/C filters which had been presoaked with 0.1% polyethylamine using a TOMTEC (Orange, Conn.) cell harvester. The results were analyzed using the Prism software package (GraphPad, San Diego, Calif.).
In test [5] the target is T2, rat GALR2 (clone 27A).
Method: Mammalian COS-7 cells were transfected by electroporation. COS-7 cells (1×10^7) were suspended in 0.85 ml of Ringers' buffer and 15 mg of the pCI.neo/27A clone was added to a 0.4 mm electroporation cuvette (Bio-Rad, Hercules, Calif.). Current was applied (960 μF, 260 V) using a Bio-Rad Electroporator device and the cells were transferred to a T-180 flask (Corning). Expression was allowed to proceed for 72 hrs.
as §1
Another test has as its target hGALR1* (human) (UniProt P47211). Kind of test: competition.
Test [6] concerns the target hGALR2 (UniProt O43603). Kind of test: competition.
A further test concerns the target rat GALR2 (UniProt O08726). Kind of test: competition.
Test [7] concerns the target hGALR2 (UniProt O43603). Kind of test: cell-based or functional assay.
Test [8] has as its target T4, rat GALR1 (rat, UniProt Q62805 1-346).
T4 sequence: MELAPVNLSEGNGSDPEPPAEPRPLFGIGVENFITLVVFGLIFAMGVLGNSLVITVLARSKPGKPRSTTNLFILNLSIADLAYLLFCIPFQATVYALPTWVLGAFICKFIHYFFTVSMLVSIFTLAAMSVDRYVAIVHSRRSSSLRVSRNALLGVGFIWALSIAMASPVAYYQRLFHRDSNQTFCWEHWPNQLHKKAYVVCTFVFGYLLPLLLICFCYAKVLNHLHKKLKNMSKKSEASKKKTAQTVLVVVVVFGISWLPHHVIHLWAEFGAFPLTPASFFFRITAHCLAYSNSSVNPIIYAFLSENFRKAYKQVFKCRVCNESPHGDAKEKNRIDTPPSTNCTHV
Kind of test: competition of 125I-human galanin binding, membranes.

The target in test [9] is T5, rat GALR2 (clone 27A) (rat, UniProt O08726 1-372).
T5 construct: Full-length 372-amino-acid receptor expressed in transiently transfected COS-7 cells; also called pCI.neo/27A
T5 sequence: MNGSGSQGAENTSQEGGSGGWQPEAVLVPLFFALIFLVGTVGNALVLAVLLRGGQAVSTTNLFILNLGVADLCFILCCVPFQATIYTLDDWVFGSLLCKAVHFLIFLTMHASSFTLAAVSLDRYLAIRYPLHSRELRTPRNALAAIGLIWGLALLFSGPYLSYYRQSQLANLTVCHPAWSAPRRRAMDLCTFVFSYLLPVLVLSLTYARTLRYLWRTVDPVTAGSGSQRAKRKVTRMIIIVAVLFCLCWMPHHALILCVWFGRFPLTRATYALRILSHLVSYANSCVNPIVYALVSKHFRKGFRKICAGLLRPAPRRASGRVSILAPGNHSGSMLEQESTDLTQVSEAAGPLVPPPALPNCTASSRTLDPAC
Kind of test: competition of 125I-human galanin binding, COS-7 membranes.

Test [10] deals with T6, human GALR2 (human, UniProt O43603 1-387).
T6 sequence: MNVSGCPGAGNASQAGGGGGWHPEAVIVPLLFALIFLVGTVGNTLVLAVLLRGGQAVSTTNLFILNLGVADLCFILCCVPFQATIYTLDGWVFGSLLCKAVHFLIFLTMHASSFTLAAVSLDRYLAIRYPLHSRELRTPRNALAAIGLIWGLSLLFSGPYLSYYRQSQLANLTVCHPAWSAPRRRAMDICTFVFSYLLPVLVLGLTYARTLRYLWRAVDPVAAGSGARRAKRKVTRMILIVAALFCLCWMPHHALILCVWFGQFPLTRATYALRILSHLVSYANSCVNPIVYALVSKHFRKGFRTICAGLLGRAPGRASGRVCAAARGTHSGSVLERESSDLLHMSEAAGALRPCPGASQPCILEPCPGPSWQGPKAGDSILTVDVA
Briefly: cell-based or functional assay.

For test [11], the target named is T7, human GALR2 (UniProt O43603 1-387).
T7 chain: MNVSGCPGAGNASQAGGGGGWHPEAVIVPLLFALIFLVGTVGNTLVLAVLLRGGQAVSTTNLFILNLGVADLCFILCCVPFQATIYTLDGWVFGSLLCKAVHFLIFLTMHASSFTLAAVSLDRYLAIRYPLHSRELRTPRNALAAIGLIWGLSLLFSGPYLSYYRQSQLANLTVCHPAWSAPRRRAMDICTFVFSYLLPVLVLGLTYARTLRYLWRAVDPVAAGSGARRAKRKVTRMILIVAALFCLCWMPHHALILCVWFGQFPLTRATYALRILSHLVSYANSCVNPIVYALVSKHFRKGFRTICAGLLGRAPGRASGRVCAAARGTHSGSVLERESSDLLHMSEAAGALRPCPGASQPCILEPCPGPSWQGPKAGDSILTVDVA
Briefly: 125I-human galanin competition binding.

Where two headings read alike, the source gives them in different places. No end group written: not given here.

hGALR1* (human), sequence (P47211 whole entry): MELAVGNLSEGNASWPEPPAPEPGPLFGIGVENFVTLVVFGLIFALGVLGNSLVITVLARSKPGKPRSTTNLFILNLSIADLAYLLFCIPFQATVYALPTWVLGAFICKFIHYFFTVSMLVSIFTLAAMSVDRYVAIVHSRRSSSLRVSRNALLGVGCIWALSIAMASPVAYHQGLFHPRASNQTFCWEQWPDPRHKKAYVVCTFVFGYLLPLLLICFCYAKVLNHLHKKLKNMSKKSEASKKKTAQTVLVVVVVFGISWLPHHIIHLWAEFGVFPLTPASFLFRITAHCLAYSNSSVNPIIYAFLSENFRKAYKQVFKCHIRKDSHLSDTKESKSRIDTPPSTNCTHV

Usually Kd stands for the free concentration of one partner at which half of the binding sites on the other are occupied at equilibrium, for simple one-to-one binding. Consider 125I-galanin, for which the Kd on galanin receptors is roughly 1 nM.

The term IC50 denotes the concentration that inhibits the measured activity by half. Lower therefore signals greater potency. Regarding `CC(C)C[C@H](NC(=O)[C@H](CC(C)C)NC(=O)[C@@H](Cc1c[nH]c2ccccc12)NC(=O)[C@H](Cc1ccccc1)NC(=O)[C@@H](Cc1c[nH]c2ccccc12)NC(=O)[C@H](CCC(N)=O)NC(=O)[C@H](CCC(N)=O)NC(=O)[C@@H]1CCCN1C(=O)[C@H](CCCCN)NC(=O)[C@@H]1CCCN1C(=O)[C@@H](CCCNC(=N)N)NC(=O)[C@@H]1CCCN1C(=O)CNC(=O)[C@H](CC(C)C)NC(=O)[C@H](CC(C)C)NC(=O)[C@H](Cc1ccc(O)cc1)NC(=O)CNC(=O)[C@H](C)NC(=O)[C@H](CO)NC(=O)[C@H](CC(N)=O)NC(=O)[C@H](CC(C)C)NC(=O)[C@@H](NC(=O)[C@H](Cc1c[nH]c2ccccc12)NC(=O)CN)[C@@H](C)O)C(N)=O` [C7], the IC50 at rat GALR1 [1] worked out at 4.9 ± 3 nM; at rat GALR2 (clone 27A) [2], 23 ± 13 nM.

As a reminder, the EC50 is the midpoint of the concentration-response curve. On to `CC[C@H](C)[C@H](NC(=O)[C@H](C)NC(=O)[C@H](Cc1c[nH]cn1)NC(=O)[C@@H]1CCCN1C(=O)CNC(=O)[C@H](CC(C)C)NC(=O)[C@H](CC(C)C)NC(=O)[C@H](Cc1ccc(O)cc1)NC(=O)CNC(=O)[C@H](C)NC(=O)[C@H](CO)NC(=O)[C@H](CC(N)=O)NC(=O)[C@H](CC(C)C)NC(=O)[C@@H](N)[C@@H](C)O)C(=O)N[C@@H](CC(=O)O)C(=O)N[C@@H](CC(N)=O)C(=O)N[C@@H](Cc1c[nH]cn1)C(=O)N[C@@H](CCCNC(=N)N)C(=O)N[C@@H](CO)C(=O)N[C@@H](Cc1ccccc1)C(=O)N[C@@H](CO)C(=O)N[C@@H](CC(=O)O)C(=O)N[C@@H](CCCCN)C(=O)N[C@@H](Cc1c[nH]cn1)C(=O)NCC(=O)N[C@@H](CC(C)C)C(=O)N[C@H](C(N)=O)[C@@H](C)O` [rat Gal (3-29)], for which the half-maximal effective concentration (EC50) at human GALR2 [3] was greater than 10000 nM. In addition, the 50% inhibitory concentration (IC50) on rat GALR1 [4] and against rat GALR2 (clone 27A) [5] was greater than 1000 nM throughout.

On to C7, for which the results for the IC50 in the test with hGALR1* (human), with hGALR2 [6] and with rat GALR2 were 6.3 nM, 40.5 nM and 13.5 nM, respectively.

M35: the IC50 with hGALR1* (human) was 0.04 nM; with hGALR2 [6], 5.6 nM.

In the test with hGALR2 [7], M35 (peptide) registered an EC50, aequorin bioluminescence in 293-AEQ17 cells of 44 nM. Also, the IC50 turned out to be 0.9 nM in the test with rat GALR1 [8] and 0.43 nM with rat GALR2 (clone 27A) [9].

With M40, the results for the IC50 with hGALR1* (human), with hGALR2 [6] and with rat GALR2 were 0.48 nM, 9.5 nM and 1.8 nM, respectively.

The molecule M40 (peptide) registered an EC50, aequorin bioluminescence in 293-AEQ17 cells with hGALR2 [7] of 8.8 nM. The results for the IC50 with rat GALR1 [8] and with rat GALR2 (clone 27A) [9] were 0.01 nM and 1.9 nM, respectively.

galantide(M15) (peptide) showed an IC50 in the test with rat GALR1 [8] of 1 nM.

B1: rat Gal (3-29) (peptide)
peptide: TLNSAGYLLGPHAIDNHRSFSDKHGLT
Consider B1, for which, in the test with human GALR2 [10], the “EC50, aequorin bioluminescence in 293-AEQ17 cells” value is greater than 10000 nM. This molecule came in with an IC50 with human GALR2 [11] greater than 1000 nM.

B2: rat galanin (peptide)
peptide: GWTLNSAGYLLGPHAIDNHRSFSDKHGLT
modifications: ends and bridges not checked
B2 yielded an IC50 with human GALR2 [11] of 1.6 nM.

B3: rat Gal (2-29) (peptide, UniProt P10683 34-61, looked up)
peptide: WTLNSAGYLLGPHAIDNHRSFSDKHGLT
notes: range 2-29; also called rGAL(2-29)
Consider B3, for which the “EC50, aequorin bioluminescence in 293-AEQ17 cells” value with human GALR2 [10] stood at 31 nM. Moreover, the IC50 with rat GALR2 (clone 27A) [9] came to 2.9 nM; in the test with human GALR2 [11], 15.4 nM.

B4: human Gal (1-19) (peptide, UniProt P22466 33-51, looked up)
peptide: GWTLNSAGYLLGPHAVGNH
notes: range 1-19; also called hGal (1-19)
As to B4, the IC50 in the test with rat GALR1 [8] stood at 0.86 nM.

The values above are taken from patent publication US6337206B1 (priority 1997, dated 2002).
